US20250032629A1, “NOVEL NUCLEOLIN-BINDING PEPTIDE AND USE THEREOF” (ANYGEN CO., LTD., priority 2020, published 2025)
Ends that are not written are not given here.

How the values were obtained:
MDA-MB-231 = assay: Whole-cell binding (cell-growth-on-bead) assay of screened peptide beads; type: cell-based, human
Protocol: (§1) Here, multiple breast and colorectal cancer cells and normal breast and colorectal cells were re-suspended at 10^6 cells/ml and incubated with beads. All experiments were repeated 3 times, and the scale bar is 200 μm. […] Here, nuclei were stained with DAPI (blue), and scale bar is 50 μm. […] Here, a whole-cell binding assay was performed to determine the cell binding of AGM-330, and the scale bar is 200 μm. […] Fmoc=9-fluorenylmethoxycarbonyl, DMF=dimethylformamide. […] Here, bar graphs represent the mean±SD, and statistical analyses were performed by one-way ANOVA with Dunnett's multiple comparison. *, **, and *** indicate P<0.05, P<0.01, and P<0.001, respectively.
(§2) The beads were washed extensively with double-distilled water and phosphate-buffered saline (PBS; Welgene Inc., Korea) before screening. Cancer cells and normal cells were detached from culture dishes with trypsin/EDTA (Gibco), washed with their corresponding culture medium, resuspended at 10^6 cells/ml, and incubated with OBOC beads in Petri dishes in a humidified CO2 incubator at 37° C. with shaking (60 rpm). Beads bound by cells appeared under a microscope as rosettes with a central bead covered by one or more layers of cells. The positive beads were picked by pipette under an inverted microscope, treated with guanidine-HCL (8 M, 20 min) to remove cells and proteins on the bead surface, and subjected to a second round of screening with normal breast epithelial cells to eliminate false positive binding. Only beads with cell binding at both rounds were sent for peptide sequencing.
(§3) To identify a novel cancer-specific peptide ligand, the present inventors synthesized about 2, 600,000 libraries using 5 g of Tentagel MB NH2 resin (200 μm, 520,000 beads/g; FIG. 3).

MCF-10A = assay: as above; type: cell-based, human
Protocol: as §1, §2, §3

MCF-10A and CCD-18Co = assay: Cell-growth-on-bead assay, normal cell lines; type: cell-based, human
Protocol: as §1, §2, §3

Cancer cells = assay: ELISA for the affinities of AGM-330 and its variants on cancer cells; type: cell-based; conditions: biotin-conjugated PEGylated peptides, 2 hours, read at 450
Protocol: (§4) Then, avidin-HRP was attached through a high-affinity avidin-biotin interaction, and the TMB substrate was converted to blue through HRP enzyme. Then, the reaction was terminated by adding an acid, and the affinities of the 13 peptides were assessed by ELISA by reading the wells at […].
Cancer cells (1×10^4 cells/well) were cultured in 96-well plates for 24 hours. AGM-330 and the 12 PEGylated peptides shown Table 2 were biotin-conjugated, and the cells were treated with increasing concentrations of the 13 peptides for 2 hours.
as §4, with “Thereafter, avidin-HRP” for “Then, avidin-HRP”, “blue color” for “blue”

NCL = NCL (Homo sapiens, UniProt P19338); assay: siRNA-mediated knockdown of NCL (real-time PCR, Western blot); type: cell-based
[1] = biological target: T1, membrane nucleolin (NCL) on cancer cells (human, UniProt P19338 2-710); assay: cell ELISA: biotin-conjugated PEGylated peptide on cancer cells (cell line not given), 2 h, avidin-HRP/TMB, absorbance at 450 nm
T1 construct: whole, on cells; also called membrane NCL; membrane-expressed NCL
Protocol: as §4, with “Cancer cells (1×10⁴ cells/well) were seeded in 96-well plates and cultured for 24 hours, and then the cells were treated with increasing concentrations of 13 biotin-conjugated peptides for 2 hours. Then, avidin-HRP” for “Then, avidin-HRP”
Cancer cells (1×10⁴ cells/well) were cultured in 96-well plates for 24 hours. AGM-330 and the 12 PEGylated peptides shown Table 2 were biotin-conjugated, and the cells were treated with increasing concentrations of the 13 peptides for 2 hours.
as §4, with “Thereafter, avidin-HRP” for “Then, avidin-HRP”, “blue color” for “blue”

T1 sequence (P19338 2-710): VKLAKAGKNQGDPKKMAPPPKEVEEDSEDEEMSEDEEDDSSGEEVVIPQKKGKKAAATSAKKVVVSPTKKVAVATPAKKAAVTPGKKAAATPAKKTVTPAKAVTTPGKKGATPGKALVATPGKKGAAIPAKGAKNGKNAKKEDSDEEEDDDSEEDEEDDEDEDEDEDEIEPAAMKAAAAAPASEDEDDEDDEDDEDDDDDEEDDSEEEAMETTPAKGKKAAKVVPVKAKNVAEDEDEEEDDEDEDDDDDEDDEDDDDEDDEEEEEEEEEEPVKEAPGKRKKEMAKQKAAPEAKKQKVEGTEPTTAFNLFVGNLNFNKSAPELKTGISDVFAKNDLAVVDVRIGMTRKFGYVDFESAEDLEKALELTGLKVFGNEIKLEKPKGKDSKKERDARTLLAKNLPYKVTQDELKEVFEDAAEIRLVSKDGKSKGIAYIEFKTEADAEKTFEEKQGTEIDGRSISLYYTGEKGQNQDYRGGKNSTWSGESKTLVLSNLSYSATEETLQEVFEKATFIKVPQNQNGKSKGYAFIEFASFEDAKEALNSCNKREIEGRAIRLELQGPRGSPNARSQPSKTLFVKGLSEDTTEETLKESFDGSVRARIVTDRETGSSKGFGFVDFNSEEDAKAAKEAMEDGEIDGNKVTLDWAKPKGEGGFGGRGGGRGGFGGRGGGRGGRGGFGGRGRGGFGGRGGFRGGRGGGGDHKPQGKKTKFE
Sequence of NCL (P19338 whole entry): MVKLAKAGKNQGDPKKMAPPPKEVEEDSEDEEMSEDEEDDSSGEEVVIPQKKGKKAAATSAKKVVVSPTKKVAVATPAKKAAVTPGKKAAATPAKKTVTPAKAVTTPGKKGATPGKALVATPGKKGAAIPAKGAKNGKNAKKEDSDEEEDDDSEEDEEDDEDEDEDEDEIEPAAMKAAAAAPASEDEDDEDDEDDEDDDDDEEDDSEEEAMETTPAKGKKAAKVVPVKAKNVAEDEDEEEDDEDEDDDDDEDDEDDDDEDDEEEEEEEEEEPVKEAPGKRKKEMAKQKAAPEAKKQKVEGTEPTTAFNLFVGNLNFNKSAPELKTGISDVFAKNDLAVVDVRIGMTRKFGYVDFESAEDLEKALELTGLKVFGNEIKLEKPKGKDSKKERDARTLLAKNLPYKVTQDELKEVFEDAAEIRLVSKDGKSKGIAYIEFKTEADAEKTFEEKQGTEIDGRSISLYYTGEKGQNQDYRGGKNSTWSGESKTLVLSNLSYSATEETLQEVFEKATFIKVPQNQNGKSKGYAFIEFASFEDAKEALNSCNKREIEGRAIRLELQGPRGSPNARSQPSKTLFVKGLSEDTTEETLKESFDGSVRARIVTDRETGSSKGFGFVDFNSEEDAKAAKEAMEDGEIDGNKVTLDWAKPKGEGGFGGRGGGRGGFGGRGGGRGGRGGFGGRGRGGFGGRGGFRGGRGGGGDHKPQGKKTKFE

ADHRHRRSG (AGM-331)
binding to MDA-MB-231 (MDA-MB-231): strong preferential binding
binding to the human normal breast cell line MCF-10A (MCF-10A): no or only weak binding
binding to normal cell lines MCF-10A and CCD-18Co (MCF-10A and CCD-18Co): relatively nonspecific and bound

AVARARRRR (AGM-332)
binding to MDA-MB-231 (MDA-MB-231): strong preferential binding
binding to the human normal breast cell line MCF-10A (MCF-10A): no or only weak binding
binding to normal cell lines MCF-10A and CCD-18Co (MCF-10A and CCD-18Co): relatively nonspecific and bound

RHGA(Nle)VYLK (RHGAXVYLK; norleucine at position 5; AGM-330; Xaa can be any naturally occurring amino acid) [SEQ ID NO: 13]
absorbance (binding affinity) compared with AGM-330 (Cancer cells): higher absorbance than AGM-330

RHGALVYLK (not fully specified) [SEQ ID NO: 12, AGM-330 variant, tested PEGylated and biotin-conjugated]
absorbance (binding affinity) compared with AGM-330 (Cancer cells): higher absorbance than AGM-330

RHGAMVFLK (not fully specified) [SEQ ID NO: 15, AGM-330 variant, tested PEGylated and biotin-conjugated]
absorbance (binding affinity) compared with AGM-330 (Cancer cells): higher absorbance than AGM-330

RHGAMVYLKLKLK (not fully specified) [SEQ ID NO: 20, AGM-330 variant, tested PEGylated and biotin-conjugated]
absorbance (binding affinity) compared with AGM-330 (Cancer cells): higher absorbance than AGM-330

siNCL1: siRNA targeting NCL, sense 5′-GAGCUAACCCUUAUCUGUA(dTdT)-3′ (SEQ ID NO: 21/22) (antisense UACAGAUAAGGGUUAGCUC; dTdT overhangs, further chemistry not given here)
NCL knockdown efficacy (mRNA) (NCL; MDA-MB-231 cells, among siNCL1, siNCL2, siNCL3): highest knockdown efficacy
basal expression of NCL in cytosolic and cell membrane fractions (Western blotting) (NCL; siNCL1-treated cells): potently inhibited

RHGAMVYLKLKLK (also: PEGylated, biotin-conjugated (sites not given here)) [AGM-330 variant L10K11L12K13 → Insertion (SEQ ID NO: 20)]
binding result [1]: binds

KLYVMAGHR (also: PEGylated (site not given here), biotin-conjugated (site not given here)) [AGM-330 variant Reverse sequence (SEQ ID NO: 19)]
binding result [1]: binds

RHRHRHGAMVYLK (also: PEGylated (site not given here), biotin-conjugated (site not given here)) [AGM-330 variant R1H2R3H4 → Insertion (SEQ ID NO: 18)]
EC50 (read off the curve) [1]: ~2000 nM

GAMVYLK (also: PEGylated, biotin-conjugated (sites not given here), also called GAMVYLK) [AGM-330 variant R1H2 → Deletion (SEQ ID NO: 16)]
binding result [1]: binds

RHRHGAMVYLK (also: PEGylated, biotin-conjugated (sites not given here)) [AGM-330 variant R1H2 → Insertion (SEQ ID NO: 17)]
binding result [1]: binds

B1: Biotinylated AGM-330 (peptide)
peptide: RHGAMVYLK
modifications: also: biotin-conjugated (site not given here)
notes: Bait of the pull-down assays; also called AGM-330-biotin; AGM-330-Biotin
EC50 (read off the curve) [1]: ~2000 nM

RHGLMVYLK (also: PEGylated, biotin-conjugated (sites not given here)) [AGM-330 variant A4 → L4 (SEQ ID NO: 11)]
EC50 (read off the curve) [1]: ~2000 nM

KHGAMVYLK (also: PEGylated, biotin-conjugated (sites not given here)) [AGM-330 variant R1 → K1 (SEQ ID NO: 9)]
EC50 (read off the curve) [1]: ~2000 nM

RRGAMVYLK (also: PEGylated, biotin-conjugated (sites not given here)) [AGM-330 variant H2 → R2 (SEQ ID NO: 10)]
EC50 (read off the curve) [1]: ~2000 nM

RHGALVYLK (also: PEGylated, biotin-conjugated (sites not given here)) [AGM-330 variant M5 → L5 (SEQ ID NO: 12)]
EC50 (read off the curve) [1]: ~2000 nM

RHGAMVFLK (also: PEGylated (site not given here), biotin-conjugated (site not given here)) [AGM-330 variant Y7 → F7 (SEQ ID NO: 15)]
EC50 (read off the curve) [1]: ~2000 nM

RHGAMAYLK (also: PEGylated (site not given here), biotin-conjugated (site not given here)) [AGM-330 variant V6 → A6 (SEQ ID NO: 14)]
EC50 (read off the curve) [1]: ~2000 nM

RHGAXVYLK (norleucine (Nle) at position 5; PEGylated; biotin-conjugated (sites not given), also called RHGA(Nle)VYLK) [AGM-330 variant M5 → Nle5 (SEQ ID NO: 13)]
binding result [1]: binds
